For one experiment, the target named is T1, human ZcytoR14 (human, UniProt Q8NAC3 21-791).
T1 sequence: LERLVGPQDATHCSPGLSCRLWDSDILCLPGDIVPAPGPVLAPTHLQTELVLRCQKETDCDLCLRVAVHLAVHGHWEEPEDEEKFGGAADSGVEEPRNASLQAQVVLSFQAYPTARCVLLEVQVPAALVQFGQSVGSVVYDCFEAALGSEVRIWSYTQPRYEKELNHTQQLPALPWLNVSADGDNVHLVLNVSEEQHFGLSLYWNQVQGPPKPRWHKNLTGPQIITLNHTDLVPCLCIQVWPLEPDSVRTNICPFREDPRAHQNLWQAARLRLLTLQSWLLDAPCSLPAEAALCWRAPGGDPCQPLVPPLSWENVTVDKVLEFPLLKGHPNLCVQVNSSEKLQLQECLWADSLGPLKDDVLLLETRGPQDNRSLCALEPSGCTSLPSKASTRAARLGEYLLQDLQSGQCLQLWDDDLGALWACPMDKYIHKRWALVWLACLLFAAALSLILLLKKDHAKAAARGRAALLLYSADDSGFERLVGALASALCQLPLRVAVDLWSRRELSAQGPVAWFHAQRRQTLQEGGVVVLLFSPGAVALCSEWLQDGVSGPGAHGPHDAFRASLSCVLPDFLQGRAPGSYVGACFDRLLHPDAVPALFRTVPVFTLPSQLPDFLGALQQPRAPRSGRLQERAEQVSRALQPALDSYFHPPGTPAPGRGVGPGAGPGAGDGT
Kind of experiment: cell-based or functional assay.

Another experiment concerns the target T2, human IL-17 receptor (human, UniProt Q96F46 33-320).
T2 sequence: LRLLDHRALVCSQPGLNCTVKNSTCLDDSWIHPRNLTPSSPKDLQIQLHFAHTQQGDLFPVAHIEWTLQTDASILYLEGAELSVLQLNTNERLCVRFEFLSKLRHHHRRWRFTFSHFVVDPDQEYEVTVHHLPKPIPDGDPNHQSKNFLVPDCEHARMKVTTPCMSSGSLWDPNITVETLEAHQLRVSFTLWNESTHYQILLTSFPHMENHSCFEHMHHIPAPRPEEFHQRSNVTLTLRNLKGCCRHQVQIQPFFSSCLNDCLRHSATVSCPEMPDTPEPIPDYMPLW
Kind of experiment: cell-based or functional assay.

B1: human IL-17F (ligand)
chain: RKIPKVGHTFFQKPESCPPVPGGSMKLDIGIINENQRVSMSRNIESRSTSPWNYTVTWDPNRYPSEVVQAQCRNLGCINAQGKEDISMNSVPIQQETLVVRRKHQGCSVSFQLEKVLVTVGCTCVTPVIHHVQ
modifications: biotinylated (Example 10) or 125I-radiolabeled by the iodobead method (Example 11) when used as tracer; unlabeled as cold competitor
B1: in the experiment with human ZcytoR14, the “EC50 of ap1/nfkb luciferase activation in the hIL-17RCX1 recombinant line” value amounted to 0.61 ng/mL and the “fold more potent EC50 in the recombinant line against the parental line” value was 17 fold. For the same molecule, the “EC50 of ap1/nfkb luciferase activation in nih3t3/kz142.8/IL-17R cells” value in the experiment with human IL-17 receptor was determined as 12.4 ng/mL.

(Values after patent US20060002925A1 (ZymoGenetics, published 2006).)
